B1: FBF1 (parent)
chain: LQRASILDMRRDHEEQLQRLKLLK

Variants of: B1
Test: protein stability index of a GFP-peptide fusion (GPS, HEK-293T) (PSI 1-6); higher = more stable
Settings: c terminus: a fixed tail appended
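Note: lentivirally expressed fusions sorted by FACS into six bins by GFP to DsRed ratio, PSI derived from sequencing read proportions per bin multiplied by bin number.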

Protein stability index, by site and new letter:
R10: F 2.36; N 3.91; L 2.5; S 3.9; K 3.97; A 3.36; M 2.9; W 3.06; Y 2.59; G 3.79; Q 3.51; V 3.33; I 2.96; E 3.35; H 3.45; T 3.79; P 3.53; D 3.44; C 2.8
A4: R 3.83; T 3.6; W 2.28; P 4.08; I 3.13; G 3.17; Q 3.7; F 2.9; E 4.02; D 3.64; H 3.73; V 2.57; N 3.83; Y 2.96; M 3.19; S 2.67; C 2.97; K 3.19; L 3.13
M9: G 4.12; F 3.22; E 3.72; T 3.94; C 2.25; R 3.72; Q 3.86; H 3.49; L 3.24; Y 3.61; I 3.81; S 3.49; V 3.61; K 3.9; A 3.84; D 3.4; P 3.93; W 3.04; N 3.85
R11: I 2.98; T 3.86; L 3.44; A 3.23; H 2.88; G 3.54; P 3.67; F 2.89; E 3.64; M 3.03; S 3.43; N 3.1; C 3.36; D 3.69; Q 3.59; K 3.7
R3: E 4.12; D 4.17; F 2.8; M 3.02; P 4.02; N 3.93; K 3.74; S 3.9; H 3.92; Y 3.4; V 2.92; W 1.9; Q 3.33; C 3.02; L 2.92; I 2.23; T 3.5; G 4.21
S5: W 2.34; E 3.15; P 3.48; L 2.49; Q 3.85; N 3.65; K 3.21; V 2.92; F 2.3; Y 2.26; T 3.52; R 2.83; I 2.34; C 2.99; A 3.59; H 2.86; D 3.81; M 3.03; G 3.71
L7: S 4.27; D 4.03; Y 3.56; N 3.99; A 4.22; H 4.1; K 3.42; P 3.98; M 3.85; W 2.9; G 4.1; E 4.55; F 2.85; T 3.38; V 3.97; Q 3.65; R 3.6; I 3.09; C 3.68
I6: Q 4.06; H 4.19; C 3.4; F 3.51; E 3.98; W 3.62; T 3.66; L 4.02; M 3.94; D 4.31; R 3.46; K 3.7; P 3.94; G 4.28; Y 3.58; V 3.57; N 4.16; S 4.15; A 4.03
D8: S 3.6; P 3.51; C 3.2; Q 3.07; G 2.76; M 3.06; Y 2.72; H 3.61; I 2.51; W 2.5; K 2.77; A 3.01; V 2.33; T 3.49; L 2.19; N 3.48; F 2.56; R 2.71; E 3.86

Source: the supplement of paper PMC10567573
